What was measured:
[1] = test system: caspase-3 activation in Hepa 1-6 cells; assay: Cleaved Caspase 3 in apoptotic Hepa 1-6 cell lysates; format: cell-based, mouse
Description: For FIG. 4a, Jurkat cells (1.5×10^5) were overnight treated in triplicate with 5 ng/ml of crosslinked human Fas ligand with or without 5 μg/ml of recombinant AlphaMet or 1 μg/ml of the indicated polypeptides. Percent apoptosis was determined by Trypan Blue staining using a hemocytometer. The data are representative and were repeated at least four times. […] The 17 kDa fragment of cleaved Caspase 3 is visualized by this antibody. The blot was reprobed for β-actin as a loading control. For FIG. 4c, serum deprived Hepa 1-6 cells (3×10^5) were overnight treated with 1 μg/ml of crosslinked mouse Fas ligand with or without AlphaMet or the indicated polypeptide. Media were collected and centrifuged to pellet the dead cells. […] The data in FIG. 4c represents three independent experiments.

Fas on Jurkat cells = molecular target: T1, Fas on Jurkat cells (Homo sapiens, UniProt P25445); assay: Immunostaining of cell surface FasL binding on Jurkat cells; format: cell-based; details: 4° C. 30 minutes
T1 construct: endogenous in cells; host or cells: Jurkat
T1 sequence (P25445 26-335): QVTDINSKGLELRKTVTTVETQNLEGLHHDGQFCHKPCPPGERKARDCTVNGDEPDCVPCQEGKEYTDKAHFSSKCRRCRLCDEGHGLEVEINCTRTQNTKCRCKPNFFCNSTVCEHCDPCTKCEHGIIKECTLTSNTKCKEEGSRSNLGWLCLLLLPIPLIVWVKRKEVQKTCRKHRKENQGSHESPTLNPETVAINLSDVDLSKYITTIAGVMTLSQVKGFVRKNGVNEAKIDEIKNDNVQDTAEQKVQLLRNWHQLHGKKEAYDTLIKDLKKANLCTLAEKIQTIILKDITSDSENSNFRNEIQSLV
Description: This antibody also recognizes Fas-Fc which is also tagged at the C-terminus by His. In FIG. 2b, a fixed amount of purified recombinant Fas-ligand was added to Fas-Fc in the absence or presence of increasing amounts of AlphaMet as indicated. Samples were subjected to pull down using proteinA agarose followed by Western blot using a polyclonal rabbit anti-FasL antibody. […] Fas ligand (1 μg/ml) was coated in the wells of a microtiter plate (triplicate wells) then 1 μg/ml of Fas-Fc was added in the absence or presence of an increasing amount of the indicated polypeptide. A 13 mer YLGA polypeptide derived from FasL also was synthesized and used. The control peptide was a scrambled 13 mer. Anti human IgM-HRP conjugates were used to detect the bound Fas-Fc. […] One-way ANOVA was carried out for determination of statistical significance. […] Cells (3×10^5) were plated in 24-well plates having Poly-L-Lysine pre-treated cover glass. 2 μg/ml of Fas ligand was added and the cells were incubated for 30 min on ice. Cells were then washed by PBS twice, and were subjected to immunostaining using anti-Fas ligand antibody and fluorescent microscopy. […]
Abrogation of Fas-FasL binding by the presence of the synthetic polypeptides corresponding to the AlphaMet YLGA (SEQ ID NO:1) motif was then analyzed. […]

B1: alpha subunit of Met (AlphaMet), amino acid residues 1 to 306, His-tagged (receptor, mouse)
chain: MKAPTVLAPGILVLLLSLVQRSHGECKEALVKSEMNVNMKYQLPNFTAETPIQNVVLHGHHIYLGATNYIYVLNDKDLQKVSEFKTGPVLEHPDCLPCRDCSSKANSSGGVWKDNINMALLVDTYYDDQLISCGSVNRGTCQRHVLPPDNSADIQSEVHCMFSPEEESGQCPDCVVSALGAKVLLSEKDRFINFFVGNTINSSYPPGYSLHSISVRRLKETQDGFKFLTDQSYIDVLPEFLDSYPIKYIHAFESNHFIYFLTVQKETLDAQTFHTRIIRFCSVDSGLHSYMEMPLECILTEKRRKRHHHHHH
- Activation of caspase-3 [1]: also inhibited by the wild type
- cell surface FasL binding to Fas (Fas on Jurkat cells): blocked

From patent publication US20070184522A1, “Cell death modulation via antagonists of Fasl and Fas activation” (University of Pittsburgh of the Commonwealth System of …, priority 2004, published 2007)
